Our source for the reduction of static adhesion of washed human platelets to fibrous collagen I by anti-GPVI scFv in the presence of EDTA, relative to EDTA alone and reduction of static adhesion of washed human platelets to fibrous collagen I by anti-GPVI scFv in the presence of EDTA, relative to control values is article PMC4855633.

In this assay the target is fibrous bovine collagen I (bovine) (UniProt P02453).
Sequence of UniProt P02453 (P02453 162-1217, chain 1 of 2): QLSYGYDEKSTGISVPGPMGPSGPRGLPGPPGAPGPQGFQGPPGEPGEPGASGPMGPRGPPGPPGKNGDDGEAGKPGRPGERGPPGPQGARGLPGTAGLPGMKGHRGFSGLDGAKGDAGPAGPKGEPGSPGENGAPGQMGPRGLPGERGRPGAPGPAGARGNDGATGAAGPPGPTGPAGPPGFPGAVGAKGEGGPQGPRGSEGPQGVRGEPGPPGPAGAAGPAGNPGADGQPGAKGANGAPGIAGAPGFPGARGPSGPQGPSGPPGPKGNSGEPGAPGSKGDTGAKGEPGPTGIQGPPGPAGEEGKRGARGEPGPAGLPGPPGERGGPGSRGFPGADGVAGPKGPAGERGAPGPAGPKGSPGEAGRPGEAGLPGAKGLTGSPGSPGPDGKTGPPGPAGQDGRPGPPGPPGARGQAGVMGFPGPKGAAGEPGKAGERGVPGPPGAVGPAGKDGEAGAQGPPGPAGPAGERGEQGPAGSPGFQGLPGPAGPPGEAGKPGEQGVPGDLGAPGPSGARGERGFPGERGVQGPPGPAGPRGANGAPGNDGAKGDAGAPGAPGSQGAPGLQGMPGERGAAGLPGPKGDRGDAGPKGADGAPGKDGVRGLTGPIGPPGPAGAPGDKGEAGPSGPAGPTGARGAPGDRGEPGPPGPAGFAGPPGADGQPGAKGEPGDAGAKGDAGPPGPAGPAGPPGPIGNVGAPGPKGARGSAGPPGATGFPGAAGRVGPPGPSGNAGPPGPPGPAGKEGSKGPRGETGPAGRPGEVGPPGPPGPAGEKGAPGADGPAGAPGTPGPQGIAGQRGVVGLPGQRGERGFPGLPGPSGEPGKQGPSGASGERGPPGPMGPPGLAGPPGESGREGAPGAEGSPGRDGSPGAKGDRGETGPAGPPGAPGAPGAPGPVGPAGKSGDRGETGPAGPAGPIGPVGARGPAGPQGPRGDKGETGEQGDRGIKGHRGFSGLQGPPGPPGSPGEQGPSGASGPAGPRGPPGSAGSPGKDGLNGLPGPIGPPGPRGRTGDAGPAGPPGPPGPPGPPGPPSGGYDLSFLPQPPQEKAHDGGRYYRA
Sequence of UniProt P02453 (P02465 80-1117, chain 2 of 2, further chain): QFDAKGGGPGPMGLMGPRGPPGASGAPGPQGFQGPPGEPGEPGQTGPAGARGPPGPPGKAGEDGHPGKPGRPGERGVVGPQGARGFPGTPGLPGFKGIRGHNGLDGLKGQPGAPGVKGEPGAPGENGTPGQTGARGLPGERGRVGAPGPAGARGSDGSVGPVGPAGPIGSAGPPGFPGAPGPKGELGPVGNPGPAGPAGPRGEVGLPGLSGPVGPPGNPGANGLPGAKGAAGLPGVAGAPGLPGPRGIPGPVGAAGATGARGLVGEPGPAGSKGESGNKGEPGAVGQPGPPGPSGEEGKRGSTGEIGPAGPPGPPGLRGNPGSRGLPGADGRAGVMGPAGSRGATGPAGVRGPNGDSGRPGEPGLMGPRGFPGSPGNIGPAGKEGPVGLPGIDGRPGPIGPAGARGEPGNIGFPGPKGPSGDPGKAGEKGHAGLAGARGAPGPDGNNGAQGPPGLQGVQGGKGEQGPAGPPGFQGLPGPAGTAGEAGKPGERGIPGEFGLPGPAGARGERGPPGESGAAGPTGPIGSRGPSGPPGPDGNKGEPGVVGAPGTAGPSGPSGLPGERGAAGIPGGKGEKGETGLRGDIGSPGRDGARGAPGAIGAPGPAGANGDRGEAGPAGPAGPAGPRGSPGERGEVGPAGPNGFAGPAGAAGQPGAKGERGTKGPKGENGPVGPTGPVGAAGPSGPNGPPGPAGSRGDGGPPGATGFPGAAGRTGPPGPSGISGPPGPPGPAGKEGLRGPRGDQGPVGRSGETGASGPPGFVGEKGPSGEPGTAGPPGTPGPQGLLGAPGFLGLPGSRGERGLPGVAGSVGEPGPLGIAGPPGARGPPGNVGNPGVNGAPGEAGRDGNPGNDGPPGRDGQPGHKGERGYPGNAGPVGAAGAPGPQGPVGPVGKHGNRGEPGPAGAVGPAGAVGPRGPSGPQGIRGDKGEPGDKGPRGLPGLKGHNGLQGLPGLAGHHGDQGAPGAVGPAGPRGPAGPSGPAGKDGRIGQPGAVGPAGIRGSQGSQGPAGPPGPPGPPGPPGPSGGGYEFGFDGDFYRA

For “glycoprotein VI (from UniProt Q9HCN6 21-339) (receptor)”, the reduction of static adhesion of washed human platelets to fibrous collagen I by anti-GPVI scFv in the presence of EDTA, relative to EDTA alone was 40% and the reduction of static adhesion of washed human platelets to fibrous collagen I by anti-GPVI scFv in the presence of EDTA, relative to control turned out to be 70%.
